Legend:
His-SEB蛋白 [1] = target: T1, His-SEB蛋白 (Staphylococcus aureus, UniProt P01552 28-266)
T1 sequence: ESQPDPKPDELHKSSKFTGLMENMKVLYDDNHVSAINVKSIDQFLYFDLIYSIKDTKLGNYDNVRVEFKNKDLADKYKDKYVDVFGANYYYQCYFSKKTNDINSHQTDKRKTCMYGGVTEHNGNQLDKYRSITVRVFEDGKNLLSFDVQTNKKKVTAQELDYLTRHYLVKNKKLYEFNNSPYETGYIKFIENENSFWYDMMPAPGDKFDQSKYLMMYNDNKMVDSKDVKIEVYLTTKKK

His-SEB蛋白 [2] = target: T1, His-SEB蛋白; remark: listed apart in the source

B1: YG11-1抗体 (antibody, V domains shown)
VH: QVQLVESGGGVVQPGRSLRLSCAASGFSLSDHAVHWVRQAPGKGLEWVALISYDGSDKYYKDSVKGRFTISRDNPKNTLYLQMTSLKPEDTAVYYCARQGGNKNINYFFQYLDVWGQGTMVTVSS
VL: DIVMTQTPSSLSASVGDRVNISCRASQTISNHLNWYLQKPGKAPKLLIYDASSLESGVPSRFSGSGSGTDFTLTISSLQPEDFATYYCQQFINYPPTFGPGTKLEIKR
Kd (His-SEB蛋白 [1]): 16.6 nM
koff (His-SEB蛋白 [1]): 0.0169 s⁻¹
kon (His-SEB蛋白 [1]): 1.02e+06 M⁻¹ s⁻¹
EC50 (His-SEB蛋白 [2]): 0.013 µg/mL
